Publication PMC10261145, “Ceramide sensing by human SPT-ORMDL complex for establishing sphingolipid homeostasis” (Nature Communications, 2023)

How the values were obtained:
[1] = target: T1, serine palmitoyltransferase (SPT) complex (SPTLC1, SPTLC2, SPTssa) (human, UniProt O15269 1-473; O15270 1-562; Q969W0 1-71); test: cryo-EM structure; single-particle cryo-EM of co-expressed and co-purified SPT-ORMDL3 complexes at ~18 mg/ml in 25 mM HEPES pH 7.5, 150 mM NaCl, 0.01% GDN; apo, or WT preincubated with 1 mM C6-ceramide on ice for 1 hr; conditions: both partners purified
T1 construct: SPTLC1, human, codon-optimized full-length cDNA; SPTLC2, human, codon-optimized full-length cDNA; SPTssa, human, codon-optimized full-length cDNA; Also purified alone, without ORMDLs; also called WT SPT complex; source: HEK293F, transiently co-transfected, purified (anti-Flag resin, SEC, GDN); copies: + +
T1 sequence (looked up) 1: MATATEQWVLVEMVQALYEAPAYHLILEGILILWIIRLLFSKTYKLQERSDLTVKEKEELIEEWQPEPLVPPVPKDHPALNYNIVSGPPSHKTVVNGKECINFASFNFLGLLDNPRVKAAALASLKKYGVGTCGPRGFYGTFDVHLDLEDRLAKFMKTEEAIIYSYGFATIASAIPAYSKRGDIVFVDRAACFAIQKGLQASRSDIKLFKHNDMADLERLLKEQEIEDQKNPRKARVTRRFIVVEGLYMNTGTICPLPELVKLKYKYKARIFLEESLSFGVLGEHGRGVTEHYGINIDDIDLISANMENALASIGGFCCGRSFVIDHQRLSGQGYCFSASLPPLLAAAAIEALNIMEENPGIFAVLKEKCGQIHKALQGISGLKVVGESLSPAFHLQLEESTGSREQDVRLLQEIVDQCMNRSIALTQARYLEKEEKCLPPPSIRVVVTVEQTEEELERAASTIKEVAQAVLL
T1 sequence (looked up) 2: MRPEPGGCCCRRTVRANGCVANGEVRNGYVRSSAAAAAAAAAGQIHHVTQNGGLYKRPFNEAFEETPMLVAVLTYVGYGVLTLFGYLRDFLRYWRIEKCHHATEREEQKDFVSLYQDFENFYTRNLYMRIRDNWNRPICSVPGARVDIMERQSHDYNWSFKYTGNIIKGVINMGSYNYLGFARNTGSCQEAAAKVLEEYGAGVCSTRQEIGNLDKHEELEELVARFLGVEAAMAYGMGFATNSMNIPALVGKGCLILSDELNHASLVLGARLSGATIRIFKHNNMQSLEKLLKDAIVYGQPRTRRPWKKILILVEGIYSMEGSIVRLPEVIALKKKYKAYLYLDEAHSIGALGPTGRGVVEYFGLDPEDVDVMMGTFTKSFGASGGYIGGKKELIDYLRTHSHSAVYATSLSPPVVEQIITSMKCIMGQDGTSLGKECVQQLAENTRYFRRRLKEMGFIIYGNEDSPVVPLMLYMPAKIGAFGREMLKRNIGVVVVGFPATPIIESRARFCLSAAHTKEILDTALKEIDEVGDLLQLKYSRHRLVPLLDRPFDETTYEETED
T1 sequence (looked up) 3: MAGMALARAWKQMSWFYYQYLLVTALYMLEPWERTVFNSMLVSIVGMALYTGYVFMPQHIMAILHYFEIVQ

[2] = target: the molecule itself; test: as above

Binder | binding result [1] | binding result [2] | other results
ORMDL3-ΔN2 (deletion of the Asn2 residue) (natural protein, human, UniProt Q8N138 1-153, looked up, ORMDL3, human, full-length cDNA with Asn2 deleted; also called ORMDL3-ΔN2 mutant; source: HEK293F, transiently co-transfected with the SPT subunits, purified as a complex (anti-Flag resin, SEC, GDN)) MVGTAHSEVNPNTRVMNSRGIWLSYVLAIGLLHIVLLSIPFVSVPVVWTLTNLIHNMGMYIFLHTVKGTPFETPDQGKARLLTHWEQMDYGVQFTASRKFLTITPIVLYFLTSFYTKYDQIHFVLNTVSLMSVLIPKLPQLHGVRIFGINKY | binds | – | –
SPT-ORMDL3 (ORMDL3-ΔN2) complex (complex, human, SPTLC1, human, codon-optimized full-length cDNA; SPTLC2, human, codon-optimized full-length cDNA; SPTssa, human, codon-optimized full-length cDNA; ORMDL3, human, full-length cDNA with Asn2 deleted; One protomer; also called ORMDL3-ΔN2 variant; ORMDL3-ΔN2 protomer; source: HEK293F, transiently co-transfected, purified (anti-Flag resin, SEC, GDN); copies: + + +) chain 1: MATATEQWVLVEMVQALYEAPAYHLILEGILILWIIRLLFSKTYKLQERSDLTVKEKEELIEEWQPEPLVPPVPKDHPALNYNIVSGPPSHKTVVNGKECINFASFNFLGLLDNPRVKAAALASLKKYGVGTCGPRGFYGTFDVHLDLEDRLAKFMKTEEAIIYSYGFATIASAIPAYSKRGDIVFVDRAACFAIQKGLQASRSDIKLFKHNDMADLERLLKEQEIEDQKNPRKARVTRRFIVVEGLYMNTGTICPLPELVKLKYKYKARIFLEESLSFGVLGEHGRGVTEHYGINIDDIDLISANMENALASIGGFCCGRSFVIDHQRLSGQGYCFSASLPPLLAAAAIEALNIMEENPGIFAVLKEKCGQIHKALQGISGLKVVGESLSPAFHLQLEESTGSREQDVRLLQEIVDQCMNRSIALTQARYLEKEEKCLPPPSIRVVVTVEQTEEELERAASTIKEVAQAVLL chain 2: MRPEPGGCCCRRTVRANGCVANGEVRNGYVRSSAAAAAAAAAGQIHHVTQNGGLYKRPFNEAFEETPMLVAVLTYVGYGVLTLFGYLRDFLRYWRIEKCHHATEREEQKDFVSLYQDFENFYTRNLYMRIRDNWNRPICSVPGARVDIMERQSHDYNWSFKYTGNIIKGVINMGSYNYLGFARNTGSCQEAAAKVLEEYGAGVCSTRQEIGNLDKHEELEELVARFLGVEAAMAYGMGFATNSMNIPALVGKGCLILSDELNHASLVLGARLSGATIRIFKHNNMQSLEKLLKDAIVYGQPRTRRPWKKILILVEGIYSMEGSIVRLPEVIALKKKYKAYLYLDEAHSIGALGPTGRGVVEYFGLDPEDVDVMMGTFTKSFGASGGYIGGKKELIDYLRTHSHSAVYATSLSPPVVEQIITSMKCIMGQDGTSLGKECVQQLAENTRYFRRRLKEMGFIIYGNEDSPVVPLMLYMPAKIGAFGREMLKRNIGVVVVGFPATPIIESRARFCLSAAHTKEILDTALKEIDEVGDLLQLKYSRHRLVPLLDRPFDETTYEETED chain 3: MAGMALARAWKQMSWFYYQYLLVTALYMLEPWERTVFNSMLVSIVGMALYTGYVFMPQHIMAILHYFEIVQ chain 4: MVGTAHSEVNPNTRVMNSRGIWLSYVLAIGLLHIVLLSIPFVSVPVVWTLTNLIHNMGMYIFLHTVKGTPFETPDQGKARLLTHWEQMDYGVQFTASRKFLTITPIVLYFLTSFYTKYDQIHFVLNTVSLMSVLIPKLPQLHGVRIFGINKY | – | binds | –
ORMDL3-N13A (natural protein, human, UniProt Q8N138 1-153, looked up, ORMDL3, human, full-length cDNA with N13A; also called ORMDL3-N13A mutant; source: HEK293F, transiently co-transfected with the SPT subunits, purified as a complex (anti-Flag resin, SEC, GDN)) MNVGTAHSEVNPATRVMNSRGIWLSYVLAIGLLHIVLLSIPFVSVPVVWTLTNLIHNMGMYIFLHTVKGTPFETPDQGKARLLTHWEQMDYGVQFTASRKFLTITPIVLYFLTSFYTKYDQIHFVLNTVSLMSVLIPKLPQLHGVRIFGINKY | binds | – | –
SPT-ORMDL3 complex (SPTLC1, SPTLC2, SPTssa, ORMDL3-FL) (complex, human, SPTLC1, human, codon-optimized full-length cDNA; SPTLC2, human, codon-optimized full-length cDNA; SPTssa, human, codon-optimized full-length cDNA; ORMDL3, human, codon-optimized full-length cDNA; One protomer; two protomers form the dimeric complex seen by cryo-EM; also called WT SPT-ORMDL3 complex; SPT-ORMDL3 protomer; source: HEK293F, transiently co-transfected, purified (anti-Flag resin, SEC, …)) chain 1: MATATEQWVLVEMVQALYEAPAYHLILEGILILWIIRLLFSKTYKLQERSDLTVKEKEELIEEWQPEPLVPPVPKDHPALNYNIVSGPPSHKTVVNGKECINFASFNFLGLLDNPRVKAAALASLKKYGVGTCGPRGFYGTFDVHLDLEDRLAKFMKTEEAIIYSYGFATIASAIPAYSKRGDIVFVDRAACFAIQKGLQASRSDIKLFKHNDMADLERLLKEQEIEDQKNPRKARVTRRFIVVEGLYMNTGTICPLPELVKLKYKYKARIFLEESLSFGVLGEHGRGVTEHYGINIDDIDLISANMENALASIGGFCCGRSFVIDHQRLSGQGYCFSASLPPLLAAAAIEALNIMEENPGIFAVLKEKCGQIHKALQGISGLKVVGESLSPAFHLQLEESTGSREQDVRLLQEIVDQCMNRSIALTQARYLEKEEKCLPPPSIRVVVTVEQTEEELERAASTIKEVAQAVLL chain 2: MRPEPGGCCCRRTVRANGCVANGEVRNGYVRSSAAAAAAAAAGQIHHVTQNGGLYKRPFNEAFEETPMLVAVLTYVGYGVLTLFGYLRDFLRYWRIEKCHHATEREEQKDFVSLYQDFENFYTRNLYMRIRDNWNRPICSVPGARVDIMERQSHDYNWSFKYTGNIIKGVINMGSYNYLGFARNTGSCQEAAAKVLEEYGAGVCSTRQEIGNLDKHEELEELVARFLGVEAAMAYGMGFATNSMNIPALVGKGCLILSDELNHASLVLGARLSGATIRIFKHNNMQSLEKLLKDAIVYGQPRTRRPWKKILILVEGIYSMEGSIVRLPEVIALKKKYKAYLYLDEAHSIGALGPTGRGVVEYFGLDPEDVDVMMGTFTKSFGASGGYIGGKKELIDYLRTHSHSAVYATSLSPPVVEQIITSMKCIMGQDGTSLGKECVQQLAENTRYFRRRLKEMGFIIYGNEDSPVVPLMLYMPAKIGAFGREMLKRNIGVVVVGFPATPIIESRARFCLSAAHTKEILDTALKEIDEVGDLLQLKYSRHRLVPLLDRPFDETTYEETED chain 3: MAGMALARAWKQMSWFYYQYLLVTALYMLEPWERTVFNSMLVSIVGMALYTGYVFMPQHIMAILHYFEIVQ chain 4: MNVGTAHSEVNPNTRVMNSRGIWLSYVLAIGLLHIVLLSIPFVSVPVVWTLTNLIHNMGMYIFLHTVKGTPFETPDQGKARLLTHWEQMDYGVQFTASRKFLTITPIVLYFLTSFYTKYDQIHFVLNTVSLMSVLIPKLPQLHGVRIFGINKY | – | – | stoichiometry N [2]: 2
SPT-ORMDL3 (ORMDL3-N13A) complex (complex, human, SPTLC1, human, codon-optimized full-length cDNA; SPTLC2, human, codon-optimized full-length cDNA; SPTssa, human, codon-optimized full-length cDNA; ORMDL3, human, full-length cDNA with N13A; One protomer; also called ORMDL3-N13A variant; ORMDL3-N13A protomer; source: HEK293F, transiently co-transfected, purified (anti-Flag resin, SEC, GDN); copies: + + +) chain 1: MATATEQWVLVEMVQALYEAPAYHLILEGILILWIIRLLFSKTYKLQERSDLTVKEKEELIEEWQPEPLVPPVPKDHPALNYNIVSGPPSHKTVVNGKECINFASFNFLGLLDNPRVKAAALASLKKYGVGTCGPRGFYGTFDVHLDLEDRLAKFMKTEEAIIYSYGFATIASAIPAYSKRGDIVFVDRAACFAIQKGLQASRSDIKLFKHNDMADLERLLKEQEIEDQKNPRKARVTRRFIVVEGLYMNTGTICPLPELVKLKYKYKARIFLEESLSFGVLGEHGRGVTEHYGINIDDIDLISANMENALASIGGFCCGRSFVIDHQRLSGQGYCFSASLPPLLAAAAIEALNIMEENPGIFAVLKEKCGQIHKALQGISGLKVVGESLSPAFHLQLEESTGSREQDVRLLQEIVDQCMNRSIALTQARYLEKEEKCLPPPSIRVVVTVEQTEEELERAASTIKEVAQAVLL chain 2: MRPEPGGCCCRRTVRANGCVANGEVRNGYVRSSAAAAAAAAAGQIHHVTQNGGLYKRPFNEAFEETPMLVAVLTYVGYGVLTLFGYLRDFLRYWRIEKCHHATEREEQKDFVSLYQDFENFYTRNLYMRIRDNWNRPICSVPGARVDIMERQSHDYNWSFKYTGNIIKGVINMGSYNYLGFARNTGSCQEAAAKVLEEYGAGVCSTRQEIGNLDKHEELEELVARFLGVEAAMAYGMGFATNSMNIPALVGKGCLILSDELNHASLVLGARLSGATIRIFKHNNMQSLEKLLKDAIVYGQPRTRRPWKKILILVEGIYSMEGSIVRLPEVIALKKKYKAYLYLDEAHSIGALGPTGRGVVEYFGLDPEDVDVMMGTFTKSFGASGGYIGGKKELIDYLRTHSHSAVYATSLSPPVVEQIITSMKCIMGQDGTSLGKECVQQLAENTRYFRRRLKEMGFIIYGNEDSPVVPLMLYMPAKIGAFGREMLKRNIGVVVVGFPATPIIESRARFCLSAAHTKEILDTALKEIDEVGDLLQLKYSRHRLVPLLDRPFDETTYEETED chain 3: MAGMALARAWKQMSWFYYQYLLVTALYMLEPWERTVFNSMLVSIVGMALYTGYVFMPQHIMAILHYFEIVQ chain 4: MNVGTAHSEVNPATRVMNSRGIWLSYVLAIGLLHIVLLSIPFVSVPVVWTLTNLIHNMGMYIFLHTVKGTPFETPDQGKARLLTHWEQMDYGVQFTASRKFLTITPIVLYFLTSFYTKYDQIHFVLNTVSLMSVLIPKLPQLHGVRIFGINKY | – | binds | –
